Measured values as given in US20210380703A1 (RIGEL PHARMACEUTICALS, published 2021).

Legend:
Mouse ACVR2A [1] = target: Mouse ACVR2A (mouse, UniProt P27038 20-135, limits assumed); experiment: ELISA
Method in brief: (§1)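 ELISA measured binding of ACVR2A-specific monoclonal antibodies to human and mouse ACVR2A. Biotinylated goat anti-human kappa light chain served as positive control and human Fc as negative control.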

Human ACVR2A [2] = target: T1, Human ACVR2A (human, UniProt P27037 20-135, limits assumed); experiment: ELISA
T1 construct: also called activin receptor, type II A
T1 sequence (P27037 20-135 limits assumed): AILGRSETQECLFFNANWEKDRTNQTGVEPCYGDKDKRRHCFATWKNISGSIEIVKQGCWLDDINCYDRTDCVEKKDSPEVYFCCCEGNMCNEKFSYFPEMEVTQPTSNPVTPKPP
Method in brief: as §1

Goat anti-Human Kappa = target: T2, Goat anti-Human Kappa; experiment: ELISA, positive control
T2 construct: Positive control of the ELISA; also called biotinylated goat anti-human kappa light chain
Method in brief: as §1

mouse ACVR2A [3] = target: mouse ACVR2A (mouse, UniProt P27038 20-135, limits assumed); experiment: ELISA
Chain of mouse ACVR2A (P27038 20-135 limits assumed): as the sequence (P27037 20-135 limits assumed) above, with K20R, V73I counted along it
Method in brief: as §1

human ACVR2A [4] = target: T3, human ACVR2A (human, UniProt P27037 20-135, limits assumed); experiment: ELISA
T3 construct: also called activin receptor, type II A
T3 sequence (P27037 20-135 limits assumed): as the sequence (P27037 20-135 limits assumed) above
Method in brief: as §1

[5] = target: T4, biotinylated goat anti-human kappa light chain; experiment: ELISA, positive control
T4 construct: Positive control of the ELISA
Method in brief: as §1
Further: test concentration or dose not given here.

Chain of Mouse ACVR2A (P27038 20-135 limits assumed): as the sequence (P27037 20-135 limits assumed) above, with K20R, V73I counted along it

| optical density (Mouse ACVR2A [1]) [OD] | optical density (Human ACVR2A [2]) [OD] | optical density (Goat anti-Human Kappa) [OD] | optical density (mouse ACVR2A [3]) [OD] | optical density (human ACVR2A [4]) [OD] | optical density [5] [OD] | Binder |
| --- | --- | --- | --- | --- | --- | --- |
| 3.64 | 3.67 | 3.3 |  |  |  | 374_B04 (antibody, V domains shown) VH: EVQLLESGGGLVQPGGSLRLSCAASGFTFSSYSMNWVRQAPGKGLEWVSNINYNSGYTGYADSVKGRFTISRDNSKNTLYLQMNSLRAEDTAVYYCARSANWHDTALDYWGQGTLVTVSS VL: DIQMTQSPSSLSASVGDRVTITCRASQSIVSYLNWYQQKPGKAPKLLIYAVTSRASGVPSRFSGSGSGTDFTLTISSLQPEDFATYYCQQSYESPLTFGGGTKVEIK |
|  |  |  | 3.71 | 3.58 | 3.05 | 374_A03 (antibody, V domains shown, VH and VL only) VH: EVQLLESGGGLVQPGGSLRLSCAASGFTFDSYSMNWVRQAPGKGLEWVSNINYNGGYTSYADSVKGRFTISRDNSKNTLYLQMNSLRAEDTAVYYCARSATWHDTHLDYWGQGTLVTVSS VL: DIQMTQSPSSLSASVGDRVTITCRASQSILTYLNWYQQKPGKAPKLLIYAATSRASGVPSRFSGSGSGTDFTLTISSLQPEDFATYYCQQSYDNPLTFGGGTKVEIK |
|  |  |  | 2.74 | 2.41 | 3.55 | 366_C03 (antibody, V domains shown, VH and VL only) VH: EVQLLESGGGLVQPGGSLRLSCAASGFTFDSYGMNWVRQAPGKGLEWVSNINYNGGYTGYADSVKGRFTISRDNSKNTLYLQMNSLRAEDTAVYYCARSATWHDTHLDYWGQGTLVTVSS VL: DIQMTQSPSSLSASVGDRVTITCRASQSILSYLNWYQQKPGKAPKLVIYAATSRASGVPSRFSGSGSGTDFTLTISSLQPEDFATYYCQQSYSNPLTFGGGTKVEIK |
|  |  |  | 2.56 | 2.38 | 3.53 | 365_H09 (antibody, V domains shown, VH and VL only) VH: EVQLLESGGGLVQPGGSLRLSCAASGFTFSSYGMNWVRQAPGKGLEWVSSINYNSGYKSYADSVKGRFTISRDNSKNTLYLQMNSLRAEDTAVYYCARSATWHDTHLDYWGQGTLVTVSS VL: not shown |
| 3.33 | 3.49 | 3.05 |  |  |  | 374_B12 (antibody, V domains shown) VH: EVQLLESGGGLVQPGGSLRLSCAASGFTFDSYSMNWVRQAPGKGLEWVAGINYNGGYTGYADSVKGRFTISRDNSKNTLYLQMNSLRAEDTAVYYCARSANWHDTHLDYWGQGTLVTVSS VL: DIQMTQSPSSLSASVGDRVTITCRASQSISSYLNWYQQKPGKAPKLVIYAATSRASGVPSRFSGSGSGTDFTLTISSLQPEDFATYYCQQSYDNPLTFGGGTKVEIK |
|  |  |  | 2.58 | 2.59 | 3.33 | 365_E08 (antibody, V domains shown, VH and VL only) VH: EVQLLESGGGLVQPGGSLRLSCAASGFTFDSYSMNWVRQAPGKGLEWVSGINYNSGYTSYADSVKGRFTISRDNSKNTLYLQMNSLRAEDTAVYYCARSATWHDTHLDYWGQGTLVTVSS VL: DIQMTQSPSSLSASVGDRVTITCRASQSIISYVNWYQQKPGKAPKLVIYAATSLASGVPSRFSGSGSGTDFTLTISSLQPEDFATYYCQQSYDLPLTFGGGTKVEIK |
| 3.6 | 3.48 | 3.08 |  |  |  | 374_B06 (antibody, V domains shown) VH: EVQLLESGGGLVQPGGSLRLSCAASGFTFDSYSMNWVRQAPGKGLEWVAGINYNSGYKGYADSVKGRFTISRDNSKNTLYLQMNSLRAEDTAVYYCARSANWHDTHLDYWGQGTLVTVSS VL: DIQMTQSPSSLSASVGDRVTITCRASQSILTYVNWYQQKPGKAPKLLIYAATSRASGVPSRFSGSGSGTDFTLTISSLQPEDFATYYCQQSYDTPLTFGGGTKVEIK |
| 3.71 | 3.71 | 3.24 |  |  |  | 374_C06 (antibody, V domains shown) VH: EVQLLESGGGLVQPGGSLRLSCAASGFTFDDYSMNWVRQAPGKGLEWVSSINYNSGYKGYADSVKGRFTISRDNSKNTLYLQMNSLRAEDTAVYYCARSANWHDTALDYWGQGTLVTVSS VL: DIQMTQSPSSLSASVGDRVTITCRASQSILTYVNWYQQKPGKAPKLLIYAATSRASGVPSRFSGSGSGTDFTLTISSLQPEDFATYYCQQSYNSPLTFGGGTKVEIK |
|  |  |  | 2.59 | 2.47 | 3.5 | 365_H04 (antibody, V domains shown, VH and VL only) VH: EVQLLESGGGLVQPGGSLRLSCAASGFTFSDYGMNWVRQAPGKGLEWVSGINYNSGYKSYADSVKGRFTISRDNSKNTLYLQMNSLRAEDTAVYYCARSATWHDTHLDYWGQGTLVTVSS VL: DIQMTQSPSSLSASVGDRVTITCRASQSILTYVNWYQQKPGKAPKLVIYAATSRASGVPSRFSGSGSGTDFTLTISSLQPEDFATYYCQQSYESPLTFGGGTKVEIK |
|  |  |  | 2.69 | 2.56 | 3.33 | 365_E03 (antibody, V domains shown, VH and VL only) VH: EVQLLESGGGLVQPGGSLRLSCAASGFTFDSYSMNWVRQAPGKGLEWVSNINYNGGYTGYADSVKGRFTISRDNSKNTLYLQMNSLRAEDTAVYYCARSATWHDTHLDYWGQGTLVTVSS VL: DIQMTQSPSSLSASVGDRVTITCRASQSILTYVNWYQQKPGKAPKLLIYAATSLHSGVPSRFSGSGSGTDFTLTISSLQPEDFATYYCQQSDERPLTFGGGTKVEIK |
|  |  |  | 1.41 | 1.49 | 3.28 | 365_A04 (antibody, V domains shown, VH and VL only) VH: EVQLLESGGGLVQPGGSLRLSCAASGFTFSDYSMNWVRQAPGKGLEWVSGINYNSGYTSYADSVKGRFTISRDNSKNTLYLQMNSLRAEDTAVYYCARSATWHDTHLDYWGQGTLVTVSS VL: DIQMTQSPSSLSASVGDRVTITCRASQSIVSYVNWYQQKPGKAPKLVIYAATSLASGVPSRFSGSGSGTDFTLTISSLQPEDFATYYCQQSYSTPLTFGGGTKVEIK |
|  |  |  | 3.08 | 2.95 | 3.42 | 365_D06 (antibody, V domains shown, VH and VL only) VH: EVQLLESGGGLVQPGGSLRLSCAASGFTFDSYSMNWVRQAPGKGLEWVSNINYNGGYTSYADSVKGRFTISRDNSKNTLYLQMNSLRAEDTAVYYCARSATWHDTHLDYWGQGTLVTVSS VL: DIQMTQSPSSLSASVGDRVTITCRASQSILTYVNWYQQKPGKAPKLLIYAATSRASGVPSRFSGSGSGTDFTLTISSLQPEDFATYYCQQSYSLPLTFGGGTKVEIK |
|  |  |  | 2.96 | 3.03 | 3.49 | 365_A02 (antibody, V domains shown, VH and VL only) VH: EVQLLESGGGLVQPGGSLRLSCAASGFTFDSYSMNWVRQAPGKGLEWVSNINYNGGYTSYADSVKGRFTISRDNSKNTLYLQMNSLRAEDTAVYYCARSATWHDTHLDYWGQGTLVTVSS VL: DIQMTQSPSSLSASVGDRVTITCRASQSILTYVNWYQQKPGKAPKLLIYAATSRASGVPSRFSGSGSGTDFTLTISSLQPEDFATYYCQQSYNSPLTFGGGTKVEIK |
| 3.61 | 3.58 | 3.06 |  |  |  | 374_C03 (antibody, V domains shown) VH: EVQLLESGGGLVQPGGSLRLSCAASGFTFDSYSMNWVRQAPGKGLEWVSGINYNSGYTSYADSVKGRFTISRDNSKNTLYLQMNSLRAEDTAVYYCARSANWHDTALDYWGQGTLVTVSS VL: DIQMTQSPSSLSASVGDRVTITCRASQSILTYLNWYQQKPGKAPKLLIYAATSRASGVPSRFSGSGSGTDFTLTISSLQPEDFATYYCQQSYDSPLTFGGGTKVEIK |
| 3.58 | 3.24 | 2.94 |  |  |  | 374_D01 (antibody, V domains shown) VH: EVQLLESGGGLVQPGGSLRLSCAASGFTFDSYSMNWVRQAPGKGLEWVSGINYNSGYKGYADSVKGRFTISRDNSKNTLYLQMNSLRAEDTAVYYCARSANWHDTALDYWGQGTLVTVSS VL: DIQMTQSPSSLSASVGDRVTITCRASQSIITYVNWYQQKPGKAPKLLIYAATSLASGVPSRFSGSGSGTDFTLTISSLQPEDFATYYCQQSYSSPLTFGGGTKVEIK |
|  |  |  | 2.15 | 1.98 | 3.45 | 365_G02 (antibody, V domains shown, VH and VL only) VH: EVQLLESGGGLVQPGGSLRLSCAASGFTFSDYSMNWVRQAPGKGLEWVSNINYNSGYKGYADSVKGRFTISRDNSKNTLYLQMNSLRAEDTAVYYCARSATWHDTHLDYWGQGTLVTVSS VL: DIQMTQSPSSLSASVGDRVTITCRASQSIVTYLNWYQQKPGKAPKLVIYAVTSLHSGVPSRFSGSGSGTDFTLTISSLQPEDFATYYCQQSYELPLTFGGGTKVEIK |
| 3.56 | 3.24 | 3.04 |  |  |  | 374_E01 (antibody, V domains shown) VH: EVQLLESGGGLVQPGGSLRLSCAASGFTFSSYGMNWVRQAPGKGLEWVAGINYNGGYTSYADSVKGRFTISRDNSKNTLYLQMNSLRAEDTAVYYCARSANWHDTALDYWGQGTLVTVSS VL: DIQMTQSPSSLSASVGDRVTITCRASQSISSYVNWYQQKPGKAPKLLIYAATSRASGVPSRFSGSGSGTDFTLTISSLQPEDFATYYCQQSYSTPLTFGGGTKVEIK |
|  |  |  | 3.06 | 3.02 | 3.37 | 366_C07 (antibody, V domains shown, VH and VL only) VH: EVQLLESGGGLVQPGGSLRLSCAASGFTFSSYSMNWVRQAPGKGLEWVSNINYNGGYTSYADSVKGRFTISRDNSKNTLYLQMNSLRAEDTAVYYCARSATWHDTHLDYWGQGTLVTVSS VL: DIQMTQSPSSLSASVGDRVTITCRASQSILTYVNWYQQKPGKAPKLLIYAATSRASGVPSRFSGSGSGTDFTLTISSLQPEDFATYYCQQSYNSPLTFGGGTKVEIK |
| 3.59 | 3.5 | 3.02 |  |  |  | 374_D08 (antibody, V domains shown) VH: EVQLLESGGGLVQPGGSLRLSCAASGFTFDSYGMNWVRQAPGKGLEWVSGINYNSGYTGYADSVKGRFTISRDNSKNTLYLQMNSLRAEDTAVYYCARSANWHDTHLDYWGQGTLVTVSS VL: DIQMTQSPSSLSASVGDRVTITCRASQSILTYLNWYQQKPGKAPKLLIYAATSRHSGVPSRFSGSGSGTDFTLTISSLQPEDFATYYCQQSYESPLTFGGGTKVEIK |
